Assay [1] concerns the target recombinant N-terminally 7×His tagged biotinylated Oxr1p (bio-Oxr1p) (yeast) (UniProt Q08952). Description: BLI; bio-Oxr1p (10 µg/ml) immobilised on streptavidin biosensors, V1ΔH^(ΔOxr1) with or without recombinant subunit C in solution; 20 mM Tris-HCl pH 7.0, 0.5 mM EDTA, β-mercaptoethanol, 5.0 mg/ml BSA; 23 °C; global fitting.
The target of assay [2] is wild-type yeast V-ATPase reconstituted into lipid nanodiscs (V1VoND) (yeast (endogenous) | yeast) (UniProt P16140).
Assay [3] deals with V1ΔH^(ΔOxr1) in the presence of recombinant subunit C (yeast (endogenous) | yeast) (UniProt P16140). Description: BLI; α-mouse IgG Fc capture biosensors loaded with α-MBP antibody, then MBP-HWT or MBP-H_(chim) (5 µg/ml); 40 nM V1ΔH in solution with buffer, Oxr1p (equimolar), subunit C (twofold molar excess) or Oxr1p + subunit C; TBSE plus 0.5 mg/ml BSA; 23 °C. (BLI is a label-free optical method that tracks binding on a fibre tip over time.)

Assay [4] has as its target T1, V1 subunit B (the B subunit of the open catalytic site), in the purified V-ATPase (yeast (endogenous), UniProt P16140 1-517).
T1 construct: V1 subunit B, yeast; source: endogenous, part of the purified yeast V-ATPase in lipid nanodiscs
Description: cryo-EM structure; V-ATPase in lipid nanodiscs (~1-2 mg/ml) vitrified with a twofold molar excess of Oxr1p, no nucleotide; 3-D classes at ~8.2 Å; Oxr1p density in the rotary state 1 class (~31% of particles). The conditions noted are these: both partners purified.

Assay [5] addresses wild-type yeast V-ATPase reconstituted into lipid nanodiscs (V1VoND) (yeast (endogenous) | yeast) (UniProt P16140). The source holds these as a separate data set.

The values below come from paper PMC11094088, “Molecular mechanism of Oxr1p mediated disassembly of yeast V-ATPase” (EMBO Reports, 2024).

The Kd is the concentration at which binding is half-saturated.

T1 sequence (P16140 whole entry): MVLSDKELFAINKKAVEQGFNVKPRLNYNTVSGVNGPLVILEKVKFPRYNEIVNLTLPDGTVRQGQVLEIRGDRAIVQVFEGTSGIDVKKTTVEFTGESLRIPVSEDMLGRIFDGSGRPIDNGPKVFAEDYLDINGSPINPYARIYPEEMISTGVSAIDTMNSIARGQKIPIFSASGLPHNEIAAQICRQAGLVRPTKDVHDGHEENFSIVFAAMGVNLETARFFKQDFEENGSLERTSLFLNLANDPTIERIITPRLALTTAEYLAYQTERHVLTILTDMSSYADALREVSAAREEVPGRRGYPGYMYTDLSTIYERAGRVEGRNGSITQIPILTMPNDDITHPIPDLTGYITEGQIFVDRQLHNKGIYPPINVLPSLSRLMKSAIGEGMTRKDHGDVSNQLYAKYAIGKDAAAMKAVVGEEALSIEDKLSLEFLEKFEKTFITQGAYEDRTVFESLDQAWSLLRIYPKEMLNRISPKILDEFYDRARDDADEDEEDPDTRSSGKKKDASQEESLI

Take “V1ΔH^(ΔOxr1) in the presence of recombinant subunit C (from UniProt P16140 1-517; P32610 1-256; P22203 1-233; P39111 1-118; P48836 1-114; P31412 1-392) (complex)”: the Kd in assay [1] worked out at 7 nM.
Regarding “V1ΔH, V1 subcomplex without subunit H (FLAG-tagged subunit G), from the oxr1Δvma13Δ background (from UniProt P16140 1-517; P32610 1-256; P22203 1-233; P39111 1-118; P48836 1-114)”, in assay [1], the Kd worked out at 67 nM.

B1: Oxidation Resistance protein 1 (Oxr1p), recombinant (natural protein, yeast, UniProt Q08952 1-273, looked up)
chain: MFGVKDAIFKIKRSIAGTDSSDSTAYTTASESSPQLKDSHNPFRNKTTSERTIVEEGSLPPVRLNGYLPSTKNKLLTPEMCDEIRTLMPTRIQLYTEWNLLYSLEQHGSSLHSLYSNVAPDSKEFRRVGYVLVIKDRKNGIFGAYSNEAFHPNEHRQYTGNGECFLWKLDKVPDVNISEKEESEQEGKEGKEEGDKEERWRFSGYPYTGVNEFAIYCTSEFLSMGAGDGHYGLLCDDGLLHGVSNPCQTYGNEVLSKEGKKFSIVALEVWRVG
notes: Oxr1p, yeast TLDc domain protein; construct as described in Khan et al, 2022; also called recombinant Oxr1p; source: E. coli BL21DE3, purified (Ni-NTA, Superdex-75 SEC); not shown: 7xHis, N-terminal, kept
For B1, the loss of ATPase activity of purified V-ATPase after 30 min with a twofold molar excess of Oxr1p alone in assay [2] stood at 30%. In addition, in assay [3], the percent reduction of V1ΔH binding to immobilised H (chim) (subunit C and Oxr1p, against Oxr1p only) worked out at 25%; the percent reduction of V1ΔH binding to immobilised wild-type H (subunit C and Oxr1p, against Oxr1p only) was determined as 60%. Further, the binding result in assay [4] is listed as “binds”. This molecule also gave an ATPase activity of purified V-ATPase in nanodiscs left after incubation with a twofold molar excess of Oxr1p, 30 min to 16 h, relative to the starting activity in assay [5] of 70%.
